The values below come from patent CN106565845A.

The target in assay [1] is human uPAR on SW480 cells (人结肠癌细胞) (human) (UniProt Q03405). The assay is described as follows: flow cytometry on SW480 cells, antibody at 5 μg/ml, FITC goat anti-human IgG. A general note: Flow cytometry measures light scatter and fluorescence of single cells or particles in a stream.
For assay [2], the target named is 重组人uPAR蛋白 (recombinant human uPAR protein, uPAR-ECD) (human) (UniProt Q03405). Briefly: ELISA, plate coated with uPAR-ECD (2 ng/μl), antibody at 0.125 μg/ml, goat anti-human IgG-HRP. (ELISA stands for enzyme-linked immunosorbent assay.)
Assay [3] has the same target. Briefly: ELISA, plate coated with uPAR-ECD (2 ng/μl), antibody at 0.0625 μg/ml, goat anti-human IgG-HRP.

B1: H5L5抗体 (humanized anti-uPAR antibody H5L5) (antibody, human IgG1, kappa, V domains shown)
VH: EVQLVQSGAEVKKPGATVKISCKASGYTFSDFYIHWVRQAPGKGLEWMGWIFHGSDNTEYNEKFRGRVTITADTSTDTGYLELSSLRSEDTAVYYCARWGPHWYFDVWGQGTLVSVSS
VL: MIQMTQSPSSVSASVGDRVTITCRASQDVSYMAWYQQKPGKAPKPWIFEISTLQSGVPSRFSGSGSGTDYSLTINSLQPEDFATYYCQQWNYPFTFGGGTKVEIKR
B1 had a 平均荧光强度 (MFI) in assay [1] of 3.17. The molecule further showed a 阳性率 (percent positive cells) in assay [1] of 99.2%. Moreover, the OD450 was 1.86 OD450 in assay [2] and 1.42 OD450 in assay [3].
